# Where “and” joins values, the source holds several entries; their conditions need not be identical. Identical values can stand only once.
# T1: extracellular domain of TNFR-1 (Example 4) (UniProt P19438 30-211, limits assumed)
# T1 construct: extracellular domain; also called TNFR1 extracellular domain
# T1 sequence (looked up): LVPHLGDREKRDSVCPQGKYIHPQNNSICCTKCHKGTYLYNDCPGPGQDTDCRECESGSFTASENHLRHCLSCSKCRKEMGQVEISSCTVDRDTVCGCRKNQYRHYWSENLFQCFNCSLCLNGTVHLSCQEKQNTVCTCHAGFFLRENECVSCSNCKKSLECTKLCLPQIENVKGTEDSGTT
# T2: TNFR1 on the cells of the TNF-dependent bioassays (THP1 cells in Examples 4 and 6) (human, UniProt P19438 30-455)
# T2 sequence: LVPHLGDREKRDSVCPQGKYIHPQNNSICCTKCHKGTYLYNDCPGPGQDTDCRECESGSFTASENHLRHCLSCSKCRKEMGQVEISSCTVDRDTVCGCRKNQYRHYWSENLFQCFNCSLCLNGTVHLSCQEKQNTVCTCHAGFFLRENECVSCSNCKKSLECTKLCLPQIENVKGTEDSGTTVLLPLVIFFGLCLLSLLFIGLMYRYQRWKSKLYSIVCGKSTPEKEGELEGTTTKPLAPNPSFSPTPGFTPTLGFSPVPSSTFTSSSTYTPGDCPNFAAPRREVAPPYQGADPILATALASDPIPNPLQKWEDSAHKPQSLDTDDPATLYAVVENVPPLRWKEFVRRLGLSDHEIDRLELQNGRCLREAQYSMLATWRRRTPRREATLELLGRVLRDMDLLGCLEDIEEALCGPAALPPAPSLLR
# T3: human soluble TNFR1 (human, UniProt P19438 30-211)
# T3 construct: also called hTNFR1; hTNFR-1
# T3 sequence: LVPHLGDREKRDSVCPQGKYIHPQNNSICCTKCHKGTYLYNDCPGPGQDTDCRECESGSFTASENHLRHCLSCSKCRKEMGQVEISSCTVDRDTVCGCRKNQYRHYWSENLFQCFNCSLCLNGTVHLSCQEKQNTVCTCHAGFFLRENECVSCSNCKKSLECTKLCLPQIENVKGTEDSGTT
# T4: human soluble TNFR2 (human, UniProt P20333 23-257)
# T4 construct: also called hTNFR2; TNF receptor type 2
# T4 sequence: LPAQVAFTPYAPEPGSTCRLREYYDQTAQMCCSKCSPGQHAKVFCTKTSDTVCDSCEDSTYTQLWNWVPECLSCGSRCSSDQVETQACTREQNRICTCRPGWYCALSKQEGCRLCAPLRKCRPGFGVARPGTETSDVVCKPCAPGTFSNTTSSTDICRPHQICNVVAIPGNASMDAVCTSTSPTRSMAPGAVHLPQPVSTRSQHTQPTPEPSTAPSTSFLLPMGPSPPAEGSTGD
# T5: Human TNFR1/CD120a protein, His & Avi tag (human, UniProt P19438 30-211)
# T5 construct: Captured on HIS1K or streptavidin biosensors; also called TNFR1-His-avi tag protein; immobilized soluble human TNFR1; not shown: His tag and Avi tag
# T5 sequence: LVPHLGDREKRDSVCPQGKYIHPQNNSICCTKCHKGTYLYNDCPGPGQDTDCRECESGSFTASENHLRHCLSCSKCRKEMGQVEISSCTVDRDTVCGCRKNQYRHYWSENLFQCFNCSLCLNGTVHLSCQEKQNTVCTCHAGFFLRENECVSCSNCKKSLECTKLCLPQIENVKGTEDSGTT
# Experiments:
# [1] = molecular target: T1, extracellular domain of TNFR-1 (Example …); experiment: SPR (Biacore method)
# [2] = molecular target: T2, TNFR1 on the cells of the TNF-dependent …; experiment: cell-based or functional assay
# human soluble TNFR1 [3] = molecular target: T3, human soluble TNFR1; experiment: SPR (format not described)
# [4] = molecular target: T1, extracellular domain of TNFR-1 (Example …); experiment: competition assay, Vhh inhibition of TNF-α binding to TNFR1 extracellular domain; competitor TNF-α
# Protocol: Competition assays of Vhh inhibition of TNF-α binding to TNFR1 extracellular domain also were performed as described in Richter et al. (2019).
# [5] = molecular target: T2, TNFR1 on the cells of the TNF-dependent …; experiment: cell-based or functional assay; remark: listed apart in the source
# human soluble TNFR2 [6] = molecular target: T4, human soluble TNFR2; experiment: SPR; VHH-Fc captured by anti-human IgG (Fc) antibody on CM5 sensor chip, TNFR2 as analyte
# human soluble TNFR1 [7] = molecular target: T3, human soluble TNFR1; experiment: SPR; VHH-Fc captured by anti-human IgG (Fc) antibody on CM5 sensor chip, human soluble TNFR1 as analyte
# Excerpt: CM5 sensor chip (Cytiva #BR100530) was coated with an anti-human IgG (Fc) antibody (Cytiva #29234600) to capture the EN1206-BV and EN1208-BV. The human soluble TNFR1 was used as analyte for binding flow.
# human soluble TNFR1 [8] = molecular target: T3, human soluble TNFR1; experiment: SPR; VHH-Fc captured on Series S Protein A sensor chip, human soluble TNFR1 as analyte (0.781-100 nM), 1:1 binding fit
# Excerpt: (§1) Series S Sensor Chip Protein A (Cytiva #29127556) was used to immobilize the Fc portion of the VHH/Fc proteins. The human soluble TNFR1 and TNFR2 are used for the SPR binding flow.
# human soluble TNFR2 [9] = molecular target: T4, human soluble TNFR2; experiment: SPR; VHH-Fc captured on Series S Protein A sensor chip, human soluble TNFR2 as analyte
# Excerpt: as §1
# [10] = molecular target: T5, Human TNFR1/CD120a protein, His & Avi …; experiment: BLI, Octet RED96; TNFR1-His-Avi immobilised on anti-penta-His (HIS1K) biosensor, EN1206-mv 0.412-100 nM
# Protocol: An Octet instrument RED96 was used for the assay. Octat anti-penta His biosensor (HIS1K) and Octet Streptavidin (SA) biosensor were used to immobilize the TNFR1-His-avi tag protein. […] Octet RED96 was used to measure the binding affinity of EN1206-mv and EN1208-bv. […] A dose-dependent binding of EN1208-bv to the immobilized TNFR1 on SA chip was detected within the concentration range of 3.7 nm to 300 nM (FIG. 11B).
# The experiments started with the determination of the binding specificity and affinity of EN1206 and EN1208 to the immobilized human soluble TNFR1. A concentration-dependent binding of EN1206 and EN1208 to the TNFR1 was observed, respectively (Table 15, FIGS. 11A-11B). Due to a lack of detectable dissociation of EN1208-BV after its binding to the immobilized TNFR1 within the dissociation assay time frame (~5 min), the on-rate (ka) and off-rate (kd) could not be calculated. Thus, an affinity (KD) for EN1208 was estimated (Table 15).
Binder,Kd [1],TNF Dependent Bioassay (IC50): VCAM [2],"relative gene expression of IL8/CXCL8 (qPCR, THP1 cells, TNF 100 ng/ml), 1 nM inhibitor, against baseline [5]","fold improvement over Etanercept in inhibition of IL-8 expression, TNF-stimulated THP1 cells (qPCR) [5]","fold improvement over Etanercept in inhibition of TNF expression, TNF-stimulated THP1 cells (qPCR) [5]","relative potency against 206dAb, suppression of TNF-induced expression of IL8/CXCL8 in THP1 cells, 1 nM [5]","relative potency against 206dAb, suppression of TNF-induced expression of TNF in THP1 cells, 1 nM [5]",Kd (human soluble TNFR1 [8]),other results
"Vhh-2 (VHH, not shown: small tags and cut ends) VHH: EVQLLESGGGLVQPGGSLRLSCAASGFTFSQYRMHWVRQAPGKSLEWVSSIDTRGSSTYYADPVKGRFTISRDNSKNTLYLQMNSLRAEDTAVYYCAKAVTMFSPFFDYWGQGTLV",1000 nM,3 nM,,,,,,,
Vhh-4 (VHH) VHH: EVQLLESGGGLVQPGGSLRLSCAASGFTFAHETMVWVRQAPGKGLEWVSHIPPDGQDPFYADSVKGRFTISRDNSKNTLYLQMNSLRAEDTAVYHCALLPKRGPWFDYWGQGTLVTVSS,0.00066 nM,0.3 nM,,,,,,,Kd (human soluble TNFR1 [3]): 0.407 nM and 0.3 nM to 0.5 nM (2×); IC50 [4]: ~1 nM
EN-1000-206 (VHH) VHH: EVQLLESGGGLVQPGGSLRLSCAASGFTFAHETMVWVRQAPGKGLEWVSHIPPDGQDPFYADSVKGRFTISRDNSKNTLYLQMNSLRAEDTAVYHCALLPKRGPWFDYWGQGTLVTVSS,,,8 fold,,,,,,
"EN-1206-Fc-BV (Fc fusion, Homodimeric, bivalent; In some paragraphs 'EN1206' also means the HSA fusion or the dAb itself; also called EN1206-BV; EN1206 bivalent) EVQLLESGGGLVQPGGSLRLSCAASGFTFAHETMVWVRQAPGKGLEWVSHIPPDGQDPFYADSVKGRFTISRDNSKNTLYLQMNSLRAEDTAVYHCALLPKRGPWFDYWGQGTLVTVSSDKTHTCPPCPAPEAAGGPSVFLFPPKPKDTLYITREPEVTCVVVDVSHEDPEVKFNWYVDGVEVHNAKTKPREEQYNSTYRVVSVLTVLHQDWLNGKEYKCKVSNKALGAPIEKTISKAKGQPREPQVYTLPPSRDELTKNQVSLTCLVKGFYPSDIAVEWESNGQPENNYKTTPPVLDSDGSFFLYSKLTVDKSRWQQGNVFSCSVMHEALHNHYTQKSLSLSPGK",,,1.75 fold,5.9 fold,15 fold,7 fold,6.5 fold,0.185 nM,binding result (human soluble TNFR2 [6]): no binding; Kd (human soluble TNFR1 [7]): 1.49 nM
"EN-1206-Fc-MV (Fc fusion, One-armed (monovalent) knob-into-hole heterodimer; the leader is cleaved on expression; also called EN1206-MV; EN1206-mv) chain 1: EVQLLESGGGLVQPGGSLRLSCAASGFTFAHETMVWVRQAPGKGLEWVSHIPPDGQDPFYADSVKGRFTISRDNSKNTLYLQMNSLRAEDTAVYHCALLPKRGPWFDYWGQGTLVTVSSDKTHTCPPCPAPEAAGGPSVFLFPPKPKDTLYITREPEVTCVVVDVSHEDPEVKFNWYVDGVEVHNAKTKPREEQYNSTYRVVSVLTVLHQDWLNGKEYKCKVSNKALGAPIEKTISKAKGQPREPQVYTLPPSRDELTKNQVSLWCLVKGFYPSDIAVEWESNGQPENNYKTTPPVLDSDGSFFLYSKLTVDKSRWQQGNVFSCSVMHEALHNHYTQKSLSLSPGK chain 2: DKTHTCPPCPAPEAAGGPSVFLFPPKPKDTLYITREPEVTCVVVDVSHEDPEVKFNWYVDGVEVHNAKTKPREEQYNSTYRVVSVLTVLHQDWLNGKEYKCKVSNKALGAPIEKTISKAKGQPREPQVYTLPPSRDELTKNQVSLSCAVKGFYPSDIAVEWESNGQPENNYKTTPPVLDSDGSFFLVSKLTVDKSRWQQGNVFSCSVMHEALHNHYTQKSLSLSPGK",,,1.75 fold,10.6 fold,6.8 fold,9.3 fold,9 fold,0.388 nM,binding result (human soluble TNFR2 [9]): no binding; Kd [10]: 0.314 nM; koff [10]: 0.000284 s⁻¹; kon [10]: 903000 M⁻¹ s⁻¹

# — patent publication US20260209374A1 (ENOSI THERAPEUTICS, published 2026)
